Measured values taken from patent publication US20130149320A1 (CENTRE NATIONAL DE LA RECHERCHE SCIENTIFIQUE, published 2013).
Ends that are not written are not given here.

Molecular target: T1, Asf1 from Xenopus laevis (endogenous, high speed egg extract) (Xenopus laevis, UniProt Q69DB9 1-201, limits assumed)
T1 construct: also called Asf1 from X. laevis
Assay: GST pull-down on Xenopus egg extract (HSE), Western blot
Experimental: FIG. 22. Inhibition of chromatin assembly with the B-domain of HIRA. FIG. 22A Binding of the wild-type but not the mutated form (I461D) of the B-domain of HIRA to Asf1. GST pull-down was performed on HSE extracts with […] of recombinant GST B-domain of HIRA proteins on beads. Input and flowthrough are 10% of the immunoprecipitated material. […] FIG. 22B The B-domain of HIRA inhibits nucleosome assembly independent of replication. In vitro nucleosome assembly reactions independent of DNA synthesis were performed with increasing amounts (2, 4 or 8 mg) of the recombinant GST HIRA B-domain or its mutated form (I461D) added directly into the nucleosome assembly reaction mix. The purified plasmid DNA was analyzed by agarose elecrophoresis and was visualized by staining with ethidium bromide (EtBr). The migration positions of DNA plasmid form 1 (supercoiled), form 11 (nicked circular) and lr (closed circular) are indicated.
GST pull-downs were performed by mixing […] of High speed xenopus egg extract (HSE prepared as described in (Almouzni, 1998)), 1X nucleosome assembly buffer, 300 ng p^{bluescript}, 4 mM ATP, […] creatine kinase and 3 mg of recombinant protein on beads during 3 h at 23° C. The flow through was recovered and beads were washed 3 times with PBS supplemented with 150 mM NaCl and 0,5% NP40. Different fractions were loaded on a NuPAGE 4-12% (Invitrogen) and ran in MES buffer. […]

T1 sequence (Q69DB9 whole entry): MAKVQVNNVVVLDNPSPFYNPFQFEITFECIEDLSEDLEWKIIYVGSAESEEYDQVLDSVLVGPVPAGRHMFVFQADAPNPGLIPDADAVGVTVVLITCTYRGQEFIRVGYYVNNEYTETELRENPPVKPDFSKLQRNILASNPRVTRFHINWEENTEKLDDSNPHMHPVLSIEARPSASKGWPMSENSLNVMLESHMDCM

B1: recombinant GST HIRA B-domain I461D (mutated Xenopus laevis HIRA B-domain, aa 435-480) (other, not shown: a dimerising Fc or GST; small tags and cut ends)
chain: GESLEDIRKNLLKKQVETRTADGRRRDTPLCIAQLDTGDFSTAFFN
modifications: also: GST fusion tag, sequence not given here
notes: also called mutated GST-B-domain I461D; mutated form (I461D) of the B-domain of HIRA
binding result: no binding (tested: 3 mg of recombinant protein on beads)
